Test results from patent publication US20220281931A1 (published 2022).

B1: SIAH1^SBD (tag-cleaved) (enzyme)
chain: VANSVLFPCKYASSGCEITLPHTEKADHEELCEFRPYSCPCPGASCKWQGSLDAVMPHLMHQHKSITTLQGEDIVFLATDINLPGAVDWVMMQSCFGFHFMLVLEKQEKYDGHQQFFAIVQLIGTRKQAENFAYRLELNGHRRRLTWEATPRSIHEGIATAIMNSDCLVFDTSIAQLFAENGNLGINVTISMC

Tests used:
BCL6^5-360 (ITC) = BCL6^5-360 (ITC) (UniProt P41182 5-360); assay: ITC; also printed as Kd = 1.6 uM
SIAH1^SBD (tag-cleaved) = target: B1; assay: ITC

B1 gave a Kd (BCL6^5-360 (ITC)) of 1.57 µM.

B2: BCL6^241-260 peptide (peptide)
peptide: EYSRPTLEVSPNVCHSNIYS
In the case of B2, the Kd (SIAH1^SBD (tag-cleaved)) is reported as 6.3 µM.
